Experiment [1] has as its target soluble complex of ¹²⁵I-IL-12 crosslinked to human IL-12R (human) (UniProt P29459). The experiment can be described thus: immunoprecipitation of solubilized 125I-IL-12/IL-12R complex by immobilized control antibody (background).
In experiment [2] the target is recombinant human IL-12 receptor (clone No. 5, SEQ ID NO:2) expressed in COS cells (human). The experiment can be described thus: equilibrium binding of labelled murine IL-12 to COS cells expressing clone 5, Scatchard, single site (Figure 19B).

By Kd is commonly meant the equilibrium constant for the complex coming apart.

Sequence of soluble complex of ¹²⁵I-IL-12 crosslinked to human IL-12R (human) (P29459 23-219, form in doubt, chain 1 of 3, other chains not shown): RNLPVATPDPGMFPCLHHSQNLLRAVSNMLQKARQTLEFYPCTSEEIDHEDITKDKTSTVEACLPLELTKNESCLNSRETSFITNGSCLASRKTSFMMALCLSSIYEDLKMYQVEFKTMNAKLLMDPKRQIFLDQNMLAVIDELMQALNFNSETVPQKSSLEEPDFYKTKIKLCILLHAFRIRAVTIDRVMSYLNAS
Sequence of soluble complex of ¹²⁵I-IL-12 crosslinked to human IL-12R (human) (P29460 23-328, form in doubt, chain 2 of 3, other chains not shown, further chain): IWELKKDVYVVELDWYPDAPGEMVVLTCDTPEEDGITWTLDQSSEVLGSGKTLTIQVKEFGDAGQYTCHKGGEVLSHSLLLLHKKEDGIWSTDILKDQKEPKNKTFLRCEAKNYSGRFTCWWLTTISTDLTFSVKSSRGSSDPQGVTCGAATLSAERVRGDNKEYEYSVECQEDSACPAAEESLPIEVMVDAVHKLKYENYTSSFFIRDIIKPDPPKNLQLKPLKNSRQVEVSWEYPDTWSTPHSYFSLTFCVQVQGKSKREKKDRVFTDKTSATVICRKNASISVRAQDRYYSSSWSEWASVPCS

Control mAb (Table 1) (antibody) registered an I.P. ASSAY (cpm bound) in experiment [1] of 402 cpm.
For the substance “Recombinant murine IL-12 (from UniProt P43431 23-215; P43432 23-335) (ligand)”, in experiment [2], the Kd was found to be 2.1 nM.
